# Assay results from article PMC5558740, “Absence of CX3CR1 impairs the internalization of Tau by microglia” (Molecular Neurodegeneration, 2017).
# B1: synthetic CX3CR1 peptide (aa 2-21) containing the binding region to CX3CL1 (peptide)
# peptide: DQFPESVTENFEYDDLAEAC
# notes: also called synthetic receptor CX3CR1; source: synthetic peptide, bought: Abyntek
# Assays:
# [1] = target: T1, recombinant human Tau isoform containing 2 N-terminal inserts and 4 microtubule binding repeats (Tau42) (human, UniProt P10636-8 1-441); experiment: affinity chromatography; CX3CR1 peptide coupled to CNBr-activated Sepharose 4B; protein (1 mg/ml) loaded in buffer A (0.1 M Mes pH 6.4, 0.5 mM MgCl2, 2 mM EGTA); bound protein eluted with 0.5 M NaCl in buffer A; fractions read by dot immunoblot; settings: both partners purified
# T1 construct: also called purified Tau; source: recombinant, isolated as described previously [25], purified
# T1 sequence (P10636 other isoform, or with tags, fused parts or gaps): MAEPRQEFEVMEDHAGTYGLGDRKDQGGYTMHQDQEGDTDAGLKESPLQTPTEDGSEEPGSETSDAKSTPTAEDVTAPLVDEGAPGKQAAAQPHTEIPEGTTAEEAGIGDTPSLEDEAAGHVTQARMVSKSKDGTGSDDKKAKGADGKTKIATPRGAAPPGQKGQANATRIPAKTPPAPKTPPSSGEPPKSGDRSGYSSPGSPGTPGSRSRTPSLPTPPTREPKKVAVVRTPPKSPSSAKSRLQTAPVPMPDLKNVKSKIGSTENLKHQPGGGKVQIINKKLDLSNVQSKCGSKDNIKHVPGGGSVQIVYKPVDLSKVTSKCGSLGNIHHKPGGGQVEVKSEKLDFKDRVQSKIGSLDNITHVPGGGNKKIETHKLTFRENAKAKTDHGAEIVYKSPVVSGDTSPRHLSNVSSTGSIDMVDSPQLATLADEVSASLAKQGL
# [2] = target: T2, Tau42 phosphorylated by GSK-3β (phospho-Tau) (human, UniProt P10636-8 1-441, phosphorylated by GSK-3β; phosphoserine at 396 (detected with anti-p-S396); other sites not stated); experiment: as above; settings: both partners purified
# T2 construct: the Cy5-labelled form (phospho-Tau-Cy5) was used for the uptake test on microglia; also called Tau phosphorylated by GSK-3β; source: recombinant Tau42 phosphorylated in vitro by GSK-3β (Sigma), heated 5 min at 100 °C, supernatant collected
# T2 sequence (P10636 other isoform, or with tags, fused parts or gaps): as above
binder,measurement,setting,value
B1,binding result,[1],binds
same,binding result,[2],binds
